This note sets out measurements from US20220213225A1 (INVENRA, published 2022).

Assay [1] addresses T1, CTLA4 (antigen immobilised on the biosensor) (human, UniProt P16410 36-161, biotinylated in Examples 30 and 35).
T1 construct: also called hCTLA4; biotinylated human CTLA4
Put plainly: Octet biolayer interferometry; antigen immobilised, B-Body as analyte. For orientation: In BLI a coated tip is dipped into the sample, and binding shifts an interference pattern.

The target in assay [2] is T1, CTLA4 (antigen immobilised on the …). The assay is described as follows: BLI steady state analysis, biotinylated CTLA4 on streptavidin sensor, two-fold dilutions of the binding molecule from 2 µM to 31.25 nM; monovalent.

T1 sequence (P16410 36-161 limits assumed): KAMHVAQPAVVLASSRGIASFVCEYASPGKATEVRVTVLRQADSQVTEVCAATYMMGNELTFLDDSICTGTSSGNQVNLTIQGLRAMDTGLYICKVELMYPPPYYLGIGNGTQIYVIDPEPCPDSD

B1: bivalent bispecific B-Body “BC1” (PD1 x Antigen A) (bispecific antibody)
chain 1: not shown
chain 2: EVQLVESGGGLVQPGGSLRLSCAASGFTFSDYDIHWVRQAPGKGLEWVGDITPYDGTTNYADSVKGRFTISADTSKNTAYLQMNSLRAEDTAVYYCARLVGEIATGFDYWGQGTLVTVSSASPREPQVYTDPPSRDELTKNQVSLTCLVKGFYPSDIAVEWESNGQPENNYKTTPPVLDSDGSFFLYSKLTVDKSRWQQGNVFSCSVMHEALHNHYTQKSLSLSGEC
chain 3: not shown
chain 4: QVQLVESGGGVVQPGRSLRLDCKASGITFSNSGMHWVRQAPGKGLEWVAVIWYDGSKRYYADSVKGRFTISRDNSKNTLFLQMNSLRAEDTAVYYCATNDDYWGQGTLVTVSSASTKGPSVFPLAPSSKSTSGGTAALGCLVKDYFPEPVTVSWNSGALTSGVHTFPAVLQSSGLYSLSSVVTVPSSSLGTQTYICNVNHKPSNTKVDKKVEPPKSC
notes: Chains 1+2 form the Antigen A site, chains 3+4 the PD1 site (nivolumab variable domains)
On to B1, for which, in assay [1], the binding result is “no binding (tested: not given on the sheet)”.

B2: BC1 1×1 B-Body SNIPER 19×8 binding molecule (CTLA4-19 x CD25-8) (bispecific antibody)
chain 1: not shown
chain 2: EVQLVESGGGLVQPGGSLRLSCAASGFTFSGYWIHWVRQAPGKGLEWVAAITSRDSYTYYADSVKGRFTISADTSKNTAYLQMNSLRAEDTAVYYCARGSYLGSAFDYWGQGTLVTVSSASPREPQVYTDPPSRDELTKNQVSLTCLVKGFYPSDIAVEWESNGQPENNYKTTPPVLDSDGSFFLYSKLTVDKSRWQQGNVFSCSVMHEALHNHYTQKSLSLSGEC
chain 3: SDIQMTQSPSSLSASVGDRVTITCRASQSVSSAVAWYQQKPGKAPKLLIYSASSLYSGVPSRFSGSRSGTDFTLTISSLQPEDFATYYCQQYSSQPATFGQGTKVEIKRTVAAPSVFIFPPSDEQLKSGTASVVCLLNNFYPREAKVQWKVDNALQSGNSQESVTEQDSKDSTYSLSSTLTLSKADYEKHKVYACEVTHQGLSSPVTKSFNRGECDKTHTCPPCPAPELLGGPSVFLFPPKPKDTLMISRTPEVTCVVVDVSHEDPEVKFNWYVDGVEVHNAKTKPREEQYNSTYRVVSVLTVLHQDWLNGKEYKCKVSNKALPAPIEKTISKAKGQPREPQVCTLPPSREEMTKNQVSLSCAVKGFYPSDIAVEWESNGQPENNYKTTPPVLDSDGSFFLVSKLTVDKSRWQQGNVFSCSVMHEALHNHYTQKSLSLSPGK
chain 4: EVQLVESGGGLVQPGGSLRLSCAASGFTFSSYYIHWVRQAPGKGLEWVAKIQPKGGYTYYADSVKGRFTISADTSKNTAYLQMNSLRAEDTAVYYCARSYYYRPHAFDYWGQGTLVTVSSASTKGPSVFPLAPSSKSTSGGTAALGCLVKDYFPEPVTVSWNSGALTSGVHTFPAVLQSSGLYSLSSVVTVPSSSLGTQTYICNVNHKPSNTKVDKKVEPPKSC
As a reminder, the Kd is the concentration at which binding is half-saturated. Lower therefore signals a tighter complex. In assay [2], B2 yielded a Kd of 19 nM.
